Data published in US20230256092A1, “COMBINED USE OF ANTI-CCR8 ANTIBODY AND CHEMOTHERAPEUTIC AGENT” (Shionogi & Co., Ltd., priority 2020, published 2023).

Biological target: T1, human CCR8 (Homo sapiens, UniProt P51685)
T1 construct: expressed in transfected cells; host or cells: 293 cells
Assay: Neutralizing activity: inhibition of Ca2+ influx by 200 nM hCCL1 in human CCR8 expressing 293 cells (FLIPR), Test Example 6
Assay type: cell-based
Settings: Table 9; WT IC50/mutant IC50; humanized 10A11 heavy chain CDR mutants, IGKV4-1/IGHV3-73
Method: The antibody dilution diluted with a medium was added to human CCR8 expressing 293 cells in which a Ca^2+ indicator was incorporated beforehand, and Ca^2+ influx by addition of 200 nM hCCL1 (manufactured by BioLegend) was measured with FLIPR. […] The evaluation was performed at least three times, and IC50 was expressed as average±SD.

Row | Molecule | IC50 ratio
1 | h10A11 (IGKV4-1/IGHV3-73 R50K): humanized 10A11 heavy chain CDR point mutant (antibody, V domains shown) VL: DIVMTQSPDSLAVSLGERATINCRSSKSLLHSNGNTYLYWYQQKPGQPPKLLIYRMSNLASGVPDRFSGSGSGTDFTLTISSLQAEDVAVYYCMQHLEYPLTFGQGTKLEIKRT VH: EVQLVESGGGLVQPGGSLKLSCAASGFAFNTYALYWVRQASGKGLEWVGKIRSKSNNYATYYADSVKDRFTISRDDSKNTAYLQMNSLKTEDTAVYYCTRARFYYSDYGYAMDYWGQGTLVTVSS | 0.12
2 | h10A11 (IGKV4-1/IGHV3-73 Y59F): humanized 10A11 heavy chain CDR point mutant (antibody, V domains shown) VL: DIVMTQSPDSLAVSLGERATINCRSSKSLLHSNGNTYLYWYQQKPGQPPKLLIYRMSNLASGVPDRFSGSGSGTDFTLTISSLQAEDVAVYYCMQHLEYPLTFGQGTKLEIKRT VH: EVQLVESGGGLVQPGGSLKLSCAASGFAFNTYALYWVRQASGKGLEWVGRIRSKSNNYATYFADSVKDRFTISRDDSKNTAYLQMNSLKTEDTAVYYCTRARFYYSDYGYAMDYWGQGTLVTVSS | 0.03
3 | h10A11 (IGKV4-1/IGHV3-73 I51L): humanized 10A11 heavy chain CDR point mutant (antibody, V domains shown) VL: DIVMTQSPDSLAVSLGERATINCRSSKSLLHSNGNTYLYWYQQKPGQPPKLLIYRMSNLASGVPDRFSGSGSGTDFTLTISSLQAEDVAVYYCMQHLEYPLTFGQGTKLEIKRT VH: EVQLVESGGGLVQPGGSLKLSCAASGFAFNTYALYWVRQASGKGLEWVGRLRSKSNNYATYYADSVKDRFTISRDDSKNTAYLQMNSLKTEDTAVYYCTRARFYYSDYGYAMDYWGQGTLVTVSS | 0.22
4 | h10A11 (IGKV4-1/IGHV3-73 D61E): humanized 10A11 heavy chain CDR point mutant (antibody, V domains shown) VL: DIVMTQSPDSLAVSLGERATINCRSSKSLLHSNGNTYLYWYQQKPGQPPKLLIYRMSNLASGVPDRFSGSGSGTDFTLTISSLQAEDVAVYYCMQHLEYPLTFGQGTKLEIKRT VH: EVQLVESGGGLVQPGGSLKLSCAASGFAFNTYALYWVRQASGKGLEWVGRIRSKSNNYATYYAESVKDRFTISRDDSKNTAYLQMNSLKTEDTAVYYCTRARFYYSDYGYAMDYWGQGTLVTVSS | 0.25
5 | h10A11 (IGKV4-1/IGHV3-73 K52bR): humanized 10A11 heavy chain CDR point mutant (antibody, V domains shown) VL: DIVMTQSPDSLAVSLGERATINCRSSKSLLHSNGNTYLYWYQQKPGQPPKLLIYRMSNLASGVPDRFSGSGSGTDFTLTISSLQAEDVAVYYCMQHLEYPLTFGQGTKLEIKRT VH: EVQLVESGGGLVQPGGSLKLSCAASGFAFNTYALYWVRQASGKGLEWVGRIRSRSNNYATYYADSVKDRFTISRDDSKNTAYLQMNSLKTEDTAVYYCTRARFYYSDYGYAMDYWGQGTLVTVSS | 0.47
6 | h10A11 (IGKV4-1/IGHV3-73 T57S): humanized 10A11 heavy chain CDR point mutant (antibody, V domains shown) VL: DIVMTQSPDSLAVSLGERATINCRSSKSLLHSNGNTYLYWYQQKPGQPPKLLIYRMSNLASGVPDRFSGSGSGTDFTLTISSLQAEDVAVYYCMQHLEYPLTFGQGTKLEIKRT VH: EVQLVESGGGLVQPGGSLKLSCAASGFAFNTYALYWVRQASGKGLEWVGRIRSKSNNYASYYADSVKDRFTISRDDSKNTAYLQMNSLKTEDTAVYYCTRARFYYSDYGYAMDYWGQGTLVTVSS | 0.49
7 | h10A11 (IGKV4-1/IGHV3-73 V63L): humanized 10A11 heavy chain CDR point mutant (antibody, V domains shown) VL: DIVMTQSPDSLAVSLGERATINCRSSKSLLHSNGNTYLYWYQQKPGQPPKLLIYRMSNLASGVPDRFSGSGSGTDFTLTISSLQAEDVAVYYCMQHLEYPLTFGQGTKLEIKRT VH: EVQLVESGGGLVQPGGSLKLSCAASGFAFNTYALYWVRQASGKGLEWVGRIRSKSNNYATYYADSLKDRFTISRDDSKNTAYLQMNSLKTEDTAVYYCTRARFYYSDYGYAMDYWGQGTLVTVSS | 0.56
8 | h10A11 (IGKV4-1/IGHV3-73 Y58F): humanized 10A11 heavy chain CDR point mutant (antibody, V domains shown) VL: DIVMTQSPDSLAVSLGERATINCRSSKSLLHSNGNTYLYWYQQKPGQPPKLLIYRMSNLASGVPDRFSGSGSGTDFTLTISSLQAEDVAVYYCMQHLEYPLTFGQGTKLEIKRT VH: EVQLVESGGGLVQPGGSLKLSCAASGFAFNTYALYWVRQASGKGLEWVGRIRSKSNNYATFYADSVKDRFTISRDDSKNTAYLQMNSLKTEDTAVYYCTRARFYYSDYGYAMDYWGQGTLVTVSS | 0.50
9 | h10A11 (IGKV4-1/IGHV3-73 R52K): humanized 10A11 heavy chain CDR point mutant (antibody, V domains shown) VL: DIVMTQSPDSLAVSLGERATINCRSSKSLLHSNGNTYLYWYQQKPGQPPKLLIYRMSNLASGVPDRFSGSGSGTDFTLTISSLQAEDVAVYYCMQHLEYPLTFGQGTKLEIKRT VH: EVQLVESGGGLVQPGGSLKLSCAASGFAFNTYALYWVRQASGKGLEWVGRIKSKSNNYATYYADSVKDRFTISRDDSKNTAYLQMNSLKTEDTAVYYCTRARFYYSDYGYAMDYWGQGTLVTVSS | n.d. (The n.d. (=not detectable) indicates that the IC50 value of the mutant is 10 nM or more)
10 | h10A11 (IGKV4-1/IGHV3-73 S52aT): humanized 10A11 heavy chain CDR point mutant (antibody, V domains shown) VL: DIVMTQSPDSLAVSLGERATINCRSSKSLLHSNGNTYLYWYQQKPGQPPKLLIYRMSNLASGVPDRFSGSGSGTDFTLTISSLQAEDVAVYYCMQHLEYPLTFGQGTKLEIKRT VH: EVQLVESGGGLVQPGGSLKLSCAASGFAFNTYALYWVRQASGKGLEWVGRIRTKSNNYATYYADSVKDRFTISRDDSKNTAYLQMNSLKTEDTAVYYCTRARFYYSDYGYAMDYWGQGTLVTVSS | 0.22

Second part, the molecule after the results:

Row | IC50 ratio | Molecule
11 | 0.55 | h10A11 (IGKV4-1/IGHV3-73 A56V): humanized 10A11 heavy chain CDR point mutant (antibody, V domains shown) VL: DIVMTQSPDSLAVSLGERATINCRSSKSLLHSNGNTYLYWYQQKPGQPPKLLIYRMSNLASGVPDRFSGSGSGTDFTLTISSLQAEDVAVYYCMQHLEYPLTFGQGTKLEIKRT VH: EVQLVESGGGLVQPGGSLKLSCAASGFAFNTYALYWVRQASGKGLEWVGRIRSKSNNYVTYYADSVKDRFTISRDDSKNTAYLQMNSLKTEDTAVYYCTRARFYYSDYGYAMDYWGQGTLVTVSS
12 | 0.03 | h10A11 (IGKV4-1/IGHV3-73 N53Q): humanized 10A11 heavy chain CDR point mutant (antibody, V domains shown) VL: DIVMTQSPDSLAVSLGERATINCRSSKSLLHSNGNTYLYWYQQKPGQPPKLLIYRMSNLASGVPDRFSGSGSGTDFTLTISSLQAEDVAVYYCMQHLEYPLTFGQGTKLEIKRT VH: EVQLVESGGGLVQPGGSLKLSCAASGFAFNTYALYWVRQASGKGLEWVGRIRSKSQNYATYYADSVKDRFTISRDDSKNTAYLQMNSLKTEDTAVYYCTRARFYYSDYGYAMDYWGQGTLVTVSS
13 | 0.53 | h10A11 (IGKV4-1/IGHV3-73 S52cT): humanized 10A11 heavy chain CDR point mutant (antibody, V domains shown) VL: DIVMTQSPDSLAVSLGERATINCRSSKSLLHSNGNTYLYWYQQKPGQPPKLLIYRMSNLASGVPDRFSGSGSGTDFTLTISSLQAEDVAVYYCMQHLEYPLTFGQGTKLEIKRT VH: EVQLVESGGGLVQPGGSLKLSCAASGFAFNTYALYWVRQASGKGLEWVGRIRSKTNNYATYYADSVKDRFTISRDDSKNTAYLQMNSLKTEDTAVYYCTRARFYYSDYGYAMDYWGQGTLVTVSS
14 | 0.47 | h10A11 (IGKV4-1/IGHV3-73 Y55F): humanized 10A11 heavy chain CDR point mutant (antibody, V domains shown) VL: DIVMTQSPDSLAVSLGERATINCRSSKSLLHSNGNTYLYWYQQKPGQPPKLLIYRMSNLASGVPDRFSGSGSGTDFTLTISSLQAEDVAVYYCMQHLEYPLTFGQGTKLEIKRT VH: EVQLVESGGGLVQPGGSLKLSCAASGFAFNTYALYWVRQASGKGLEWVGRIRSKSNNFATYYADSVKDRFTISRDDSKNTAYLQMNSLKTEDTAVYYCTRARFYYSDYGYAMDYWGQGTLVTVSS
15 | 0.67 | h10A11 (IGKV4-1/IGHV3-73 A60V): humanized 10A11 heavy chain CDR point mutant (antibody, V domains shown) VL: DIVMTQSPDSLAVSLGERATINCRSSKSLLHSNGNTYLYWYQQKPGQPPKLLIYRMSNLASGVPDRFSGSGSGTDFTLTISSLQAEDVAVYYCMQHLEYPLTFGQGTKLEIKRT VH: EVQLVESGGGLVQPGGSLKLSCAASGFAFNTYALYWVRQASGKGLEWVGRIRSKSNNYATYYVDSVKDRFTISRDDSKNTAYLQMNSLKTEDTAVYYCTRARFYYSDYGYAMDYWGQGTLVTVSS
16 | 1.60 | h10A11 (IGKV4-1/IGHV3-73 S62T): humanized 10A11 heavy chain CDR point mutant (antibody, V domains shown) VL: DIVMTQSPDSLAVSLGERATINCRSSKSLLHSNGNTYLYWYQQKPGQPPKLLIYRMSNLASGVPDRFSGSGSGTDFTLTISSLQAEDVAVYYCMQHLEYPLTFGQGTKLEIKRT VH: EVQLVESGGGLVQPGGSLKLSCAASGFAFNTYALYWVRQASGKGLEWVGRIRSKSNNYATYYADTVKDRFTISRDDSKNTAYLQMNSLKTEDTAVYYCTRARFYYSDYGYAMDYWGQGTLVTVSS
